Patent US20200024330A1

Assays:
Assay in all cases: cell-based or functional assay
[1] = molecular target: HIV-1 6535.3 Env (pseudovirus) (HIV-1)
[2] = molecular target: HIV-1 Env of isolate 92UG046 (subtype D) (HIV-1)
[3] = molecular target: HIV-1 Env of isolate 98CN009 (subtype CRF07_BC) (HIV-1)
[4] = molecular target: HIV-1 Env of isolate MG RM-D-022 (subtype D) (HIV-1)
[5] = molecular target: HIV-1 Env of isolate MGRM-C-013 (pseudovirus) (HIV-1 isolate MGRM-C-013, subtype C)
[6] = molecular target: HIV-1 Env of isolate MGRM-C-027 (pseudovirus) (HIV-1 isolate MGRM-C-027, subtype C)
[7] = molecular target: HIV-1 Env of isolate MGRM-F1-017 (HIV-1)
[8] = molecular target: HIV-1 Env of isolate MGRM-F1-020 (HIV-1)
[9] = molecular target: HIV-1 Env of isolate MGRM-G-028 (HIV-1)
[10] = molecular target: HIV-1 JR-CSF Env D185A (HIV-1 (isolate JR-CSF)) (UniProt P20871)
[11] = molecular target: HIV-1 JR-CSF Env E172A (HIV-1 (isolate JR-CSF)) (UniProt P20871)
[12] = molecular target: HIV-1 JR-CSF Env E466A (HIV-1 (isolate JR-CSF)) (UniProt P20871)
[13] = molecular target: HIV-1 JR-CSF Env F468A (HIV-1 (isolate JR-CSF)) (UniProt P20871)
[14] = molecular target: HIV-1 JR-CSF Env N160K (HIV-1 (isolate JR-CSF)) (UniProt P20871)
[15] = molecular target: HIV-1 JR-CSF Env N197A (HIV-1 (isolate JR-CSF)) (UniProt P20871)
[16] = molecular target: HIV-1 MGRM-Chronic-B-012 Env (pseudovirus) (HIV-1)
[17] = molecular target: HIV-1 Env of isolate 98IN022 (HIV-1)
[18] = molecular target: HIV-1 Env of isolate MGRM-D-016 (HIV-1)
[19] = molecular target: HIV-1 Env of isolate 92UG031 (HIV-1)
[20] = molecular target: HIV-1 Env of isolate 92UG037 (HIV-1)
[21] = molecular target: HIV-1 Env of isolate 92UG046 (HIV-1)
[22] = molecular target: HIV-1 Env of isolate MGRM-AE-002 (HIV-1)
[23] = molecular target: HIV-1 Env of isolate 92WR009 (HIV-1)
[24] = molecular target: HIV-1 Env of isolate MGRM-A-007 (clade A), on pseudovirus (HIV-1)
[25] = molecular target: HIV-1 Env of isolate MGRM-A-011 (clade A), on pseudovirus (HIV-1)
[26] = molecular target: HIV-1 Env of isolate MGRM-AE-005 (CRF01_AE), on pseudovirus (HIV-1)
[27] = molecular target: HIV-1 Env of isolate MGRM-AE-006 (CRF01_AE), on pseudovirus (HIV-1)
[28] = molecular target: HIV-1 Env of isolate MGRM-AG-011 (CRF_AG), on pseudovirus (HIV-1)
[29] = molecular target: HIV-1 Env of isolate MGRM-AG-013 (CRF_AG), on pseudovirus (HIV-1)
[30] = molecular target: HIV-1 Env of isolate MGRM-C-023 (HIV-1)
[31] = molecular target: HIV-1 Env of isolate MGRM-F1-008 (subtype F), on pseudovirus (HIV-1)
[32] = molecular target: HIV-1 Env of isolate MGRM-F1-018 (subtype F), on pseudovirus (HIV-1)
[33] = molecular target: HIV-1 92RW020 envelope glycoprotein (Env) (HIV-1)
[34] = molecular target: HIV-1 92RW020 envelope protein (Env) on pseudovirus (HIV-1)
[35] = molecular target: HIV-1 93MW959 envelope glycoprotein (Env) on pseudovirus (HIV-1)
[36] = molecular target: HIV-1 Env of isolate MGRM-D-002 (clade D) (HIV-1)
[37] = molecular target: HIV-1 Env of isolate MGRM-D-004 (clade D) (HIV-1)
[38] = molecular target: HIV-1 Env of isolate MGRM-G-017 (clade G pseudovirus) (HIV-1)
[39] = molecular target: HIV-1 Env of pseudovirus 6535.3 (Acute), clade B (HIV-1)
[40] = molecular target: HIV-1 Env of pseudovirus APV_6, clade B (HIV-1)
[41] = molecular target: HIV-1 IAVI-C18 envelope protein (Env) on pseudovirus (HIV-1)
[42] = molecular target: HIV-1 MGRM-A-009 envelope glycoprotein (Env) (HIV-1)
[43] = molecular target: HIV-1 MGRM-C-010 Env (HIV-1)

For 5145_B14 (PGT-127) (antibody), which IC50, pseudovirus neutralization [1] is on record?
Its IC50, pseudovirus neutralization is 0.02 µg/mL.

And the IC50 (µg/mL), pseudovirus neutralization [2]?
Its IC50 (µg/mL), pseudovirus neutralization is over 50 µg/mL.

What about the IC50 (µg/mL), pseudovirus neutralization [3] of the same substance?
Its IC50 (µg/mL), pseudovirus neutralization is 0.09 µg/mL.

What about the IC50 (µg/mL), pseudovirus neutralization [4] of the same substance?
The IC50 (µg/mL), pseudovirus neutralization was over 50 µg/mL.

And the IC50 (µg/mL) neutralization [5]?
The IC50 (µg/mL) neutralization was over 50 µg/mL.

What about the IC50 (µg/mL) neutralization [6] of the same substance?
The IC50 (µg/mL) neutralization was over 50 µg/mL.

What about the IC50 [7] of the same substance?
The IC50 was over 50 µg/mL.

What about the IC50 [8] of the same substance?
The IC50 was over 50 µg/mL.

And the IC50, pseudovirus neutralization [9]?
Its IC50, pseudovirus neutralization is 0.032 µg/mL.

And the Fold IC50 increase relative to wild-type [10]?
The Fold IC50 increase relative to wild-type was 2 fold.

And the Fold IC50 increase relative to wild-type [11]?
Its Fold IC50 increase relative to wild-type is 2.1 fold.

What about the Fold IC50 increase relative to wild-type [12] of the same substance?
The Fold IC50 increase relative to wild-type was 0.9 fold.

And the Fold IC50 increase relative to wild-type [13]?
Its Fold IC50 increase relative to wild-type is 3 fold.

And the Fold IC50 increase relative to wild-type [14]?
The Fold IC50 increase relative to wild-type was 0.8 fold.

What about the Fold IC50 increase relative to wild-type [15] of the same substance?
Its Fold IC50 increase relative to wild-type is 0.6 fold.

And the IC50, pseudovirus neutralization [16]?
Its IC50, pseudovirus neutralization is 0.075 µg/mL.

VRC01 (antibody) was tested. Which neutralization IC50 [17] did it give?
The neutralization IC50 was 0.342 µg/mL.

What about the IC50, pseudovirus neutralization [18] of the same substance?
Its IC50, pseudovirus neutralization is 0.452 µg/mL.

What about the IC50, pseudovirus neutralization [7] of the same substance?
The IC50, pseudovirus neutralization was 1.08 µg/mL.

What about the IC50, pseudovirus neutralization [8] of the same substance?
The IC50, pseudovirus neutralization was 1.89 µg/mL.

Which IC50 [19] does the source give for PGV04 (antibody) here?
Its IC50 is 4.46 µg/mL.

What about the IC50 [20] of the same substance?
Its IC50 is 0.145 µg/mL.

What about the IC50 (µg/mL), pseudovirus neutralization [21] of the same substance?
Its IC50 (µg/mL), pseudovirus neutralization is 22.4 µg/mL.

And the IC50 (µg/mL), pseudovirus neutralization [22]?
Its IC50 (µg/mL), pseudovirus neutralization is 0.569 µg/mL.

And the IC50 (µg/mL), pseudovirus neutralization [18]?
The IC50 (µg/mL), pseudovirus neutralization was 0.201 µg/mL.

What does the source list for 5136_H01 (PGT-131) (antibody)?
neutralization IC50 [19]: > 50 µg/mL; neutralization IC50 [20]: 0.048 µg/mL; IC50 [21]: > 50 µg/mL; neutralization IC50 [23]: 3.12 µg/mL; IC50 [17]: > 50 µg/mL; IC50, single-round pseudovirus neutralization [24]: > 50 µg/mL; IC50, single-round pseudovirus neutralization [25]: > 50 µg/mL; IC50, single-round pseudovirus neutralization [26]: 0.017 µg/mL; IC50, single-round pseudovirus neutralization [27]: 0.026 µg/mL; IC50, single-round pseudovirus neutralization [28]: > 50 µg/mL; IC50, single-round pseudovirus neutralization [29]: 0.03 µg/mL; IC50 [30]: 0.143 µg/mL; IC50 [18]: > 50 µg/mL; IC50, pseudovirus neutralization [31]: 2.74 µg/mL; IC50, pseudovirus neutralization [32]: > 50 µg/mL; IC50, pseudovirus neutralization [9]: 0.466 µg/mL; Fold IC50 increase relative to wild-type [10]: 0.7 fold; Fold IC50 increase relative to wild-type [12]: 1.7 fold; Fold IC50 increase relative to wild-type [13]: 1.6 fold; Fold IC50 increase relative to wild-type [14]: 0.4 fold; Fold IC50 increase relative to wild-type [15]: 1.1 fold

1496_C09 (PG9) (TCN-109) (antibody) was tested. Which IC50 (µg/ml), pseudovirus neutralization [33] did it give?
The IC50 (µg/ml), pseudovirus neutralization was 0.08 µg/mL.

What about the IC50 neutralization [33] of the same substance?
The IC50 neutralization was 0.161 µg/mL.

What about the neutralization IC50 [34] of the same substance?
Its neutralization IC50 is 0.0637 µg/mL.

And the IC50 (µg/ml), pseudovirus neutralization [35]?
The IC50 (µg/ml), pseudovirus neutralization was 0.04 µg/mL.

What about the IC50 [19] of the same substance?
Its IC50 is 3.6 µg/mL.

And the IC50 (µg/mL), pseudovirus neutralization [21]?
Its IC50 (µg/mL), pseudovirus neutralization is 1.86 µg/mL.

And the IC50 (µg/mL), pseudovirus neutralization [22]?
The IC50 (µg/mL), pseudovirus neutralization was 0.04 µg/mL.

What about the IC50 (µg/ml), pseudovirus neutralization [22] of the same substance?
The IC50 (µg/ml), pseudovirus neutralization was 0.04 µg/mL.

And the IC50 (µg/ml), pseudovirus neutralization [36]?
Its IC50 (µg/ml), pseudovirus neutralization is 0.027 µg/mL.

And the IC50 (µg/ml), pseudovirus neutralization [37]?
Its IC50 (µg/ml), pseudovirus neutralization is 0.03 µg/mL.

And the IC50 (µg/mL), pseudovirus neutralization [18]?
Its IC50 (µg/mL), pseudovirus neutralization is 0.098 µg/mL.

And the IC50 (µg/ml), pseudovirus neutralization [38]?
Its IC50 (µg/ml), pseudovirus neutralization is 0.03 µg/mL.

And the IC50 (µg/ml), pseudovirus neutralization [39]?
Its IC50 (µg/ml), pseudovirus neutralization is 0.22 µg/mL.

What about the IC50 (µg/ml), pseudovirus neutralization [40] of the same substance?
The IC50 (µg/ml), pseudovirus neutralization was 0.12 µg/mL.

What about the neutralization IC50 [41] of the same substance?
The neutralization IC50 was 0.0535 µg/mL.

What about the IC50 (µg/ml), pseudovirus neutralization [42] of the same substance?
The IC50 (µg/ml), pseudovirus neutralization was 0.03 µg/mL.

And the IC50 [43]?
Its IC50 is 12.4 µg/mL.

What does the source list for 4858_P08 (PGT-123) (antibody)?
IC50, pseudovirus neutralization [1]: 0.004 µg/mL; IC50 (µg/mL), pseudovirus neutralization [2]: > 50 µg/mL; IC50 (µg/mL), pseudovirus neutralization [3]: 0.007 µg/mL; IC50 (µg/mL), pseudovirus neutralization [4]: > 50 µg/mL; IC50 (µg/mL) neutralization [5]: 14.9 µg/mL; IC50 (µg/mL) neutralization [6]: 0.02 µg/mL; IC50 [7]: > 50 µg/mL; IC50 [8]: 0.051 µg/mL; IC50, pseudovirus neutralization [9]: 0.008 µg/mL; Fold IC50 increase relative to wild-type [10]: 1.9 fold; Fold IC50 increase relative to wild-type [11]: 1.1 fold; Fold IC50 increase relative to wild-type [12]: 0.6 fold; Fold IC50 increase relative to wild-type [13]: 0.5 fold; Fold IC50 increase relative to wild-type [14]: 1 fold; Fold IC50 increase relative to wild-type [15]: 1.4 fold; IC50, pseudovirus neutralization [16]: 0.227 µg/mL

What does the source list for PGT-121 (antibody)?
IC50 neutralization [33]: 0.0063 µg/mL; IC50 (µg/mL), pseudovirus neutralization [19]: > 50 µg/mL; IC50 (µg/mL), pseudovirus neutralization [20]: 0.031 µg/mL; IC50 (µg/mL), pseudovirus neutralization [23]: 1.74 µg/mL; IC50 (µg/mL), pseudovirus neutralization [22]: > 50 µg/mL
